{
  "source": "paper PMC5426754",
  "about": "“Ezrin interacts with S100A4 via both its N- and C-terminal domains” (PLoS ONE, 2017)",
  "binders": {"B1": {"name": "S100A4 (metastasin), wild type (natural protein)", "chain": "not shown"}},
  "details_in_all_cases": "both partners purified",
  "key": {"[1]": {"molecular_target": "T1, Ezrin N-ERMAD (N-terminal ERM domain, FERM domain, Met1-Lys296) (human, UniProt P15311 1-296)", "assay": "other fluorescence titration; steady-state tryptophan fluorescence; 2 μM ezrin construct titrated with S100 protein; 20 mM HEPES pH 7.5, 150 mM NaCl, 0.5 mM TCEP, 1 mM CaCl2; 25°C; quadratic binding equation"}, "[2]": {"molecular_target": "T1, Ezrin N-ERMAD (N-terminal ERM domain, …)", "assay": "fluorescence polarisation; direct FP; 50 nM fluorescent tracer (Fl-C-ERMAD variants or Fl-NMIIA) titrated with S100 proteins or N-ERMAD; 20 mM HEPES pH 7.5, 150 mM NaCl, 0.1 mM TCEP, 1 mM CaCl2, 0.05% Tween-20; triplicates; quadratic binding equation"}, "[3]": {"molecular_target": "B1", "assay": "fluorescence polarisation; direct FP; 50 nM fluorescent tracer (Fl-C-ERMAD variants or Fl-NMIIA) titrated with S100 proteins or N-ERMAD; 20 mM HEPES pH 7.5, 150 mM NaCl, 0.1 mM TCEP, 1 mM CaCl2, 0.05% Tween-20; triplicates; quadratic binding equation"}, "[4]": {"molecular_target": "B1", "assay": "fluorescence polarisation; competitive FP; 50 nM Fl-NMIIA complexed with 4 μM S100A4 dimer titrated with ezrin constructs; competition binding equation; triplicates"}, "[5]": {"molecular_target": "T1, Ezrin N-ERMAD (N-terminal ERM domain, …)", "assay": "circular dichroism; far-UV CD difference spectra of complexes; 10 mM Tris pH 7.5, 150 mM NaCl, 0.1 mM TCEP, 1 mM CaCl2; 15 μM N-ERMAD + 50 μM S100A4 dimer, 25 μM F2 lobe + 25 μM S100A4 dimer, 25 μM C-ERMAD + 100 μM S100A4 dimer or 30 μM N-ERMAD; BeStSel deconvolution"}, "[6]": {"molecular_target": "T1, Ezrin N-ERMAD (N-terminal ERM domain, …)", "assay": "fluorescence polarisation; competitive FP; 50 nM Fl-NMIIA complexed with 4 μM S100A4 dimer titrated with ezrin constructs; competition binding equation; triplicates"}, "[7]": {"molecular_target": "T2, Ezrin F2 lobe of the N-ERMAD (Glu87-Glu199) (human, UniProt P15311 87-199)", "assay": "fluorescence polarisation; competitive FP; 50 nM Fl-NMIIA complexed with 4 μM S100A4 dimer titrated with ezrin constructs; competition binding equation; triplicates"}, "Full-length human ezrin [8]": {"molecular_target": "T3, Full-length human ezrin (human, UniProt P15311 1-586)", "assay": "fluorescence polarisation; competitive FP; 50 nM Fl-NMIIA complexed with 4 μM S100A4 dimer titrated with ezrin constructs; competition binding equation; triplicates"}, "[9]": {"molecular_target": "T4, Full-length human ezrin, phosphomimicking mutant T567D (human, UniProt P15311 1-586, Thr567Asp)", "assay": "fluorescence polarisation; competitive FP; 50 nM Fl-NMIIA complexed with 4 μM S100A4 dimer titrated with ezrin constructs; competition binding equation; triplicates"}, "[10]": {"molecular_target": "T2, Ezrin F2 lobe of the N-ERMAD …", "assay": "other fluorescence titration; steady-state tryptophan fluorescence; 2 μM ezrin construct titrated with S100 protein; 20 mM HEPES pH 7.5, 150 mM NaCl, 0.5 mM TCEP, 1 mM CaCl2; 25°C; quadratic binding equation"}, "[11]": {"molecular_target": "T1, Ezrin N-ERMAD (N-terminal ERM domain, …)", "assay": "other fluorescence titration; steady-state tryptophan fluorescence; 2 μM ezrin construct titrated with S100 protein; 20 mM HEPES pH 7.5, 150 mM NaCl, 0.5 mM TCEP, 1 mM CaCl2; 25°C; quadratic binding equation", "remark": "listed apart in the source"}, "[12]": {"molecular_target": "T2, Ezrin F2 lobe of the N-ERMAD …", "assay": "other fluorescence titration; steady-state tryptophan fluorescence; 2 μM ezrin construct titrated with S100 protein; 20 mM HEPES pH 7.5, 150 mM NaCl, 0.5 mM TCEP, 1 mM CaCl2; 25°C; quadratic binding equation", "remark": "listed apart in the source"}, "Full-length human ezrin [13]": {"molecular_target": "T3, Full-length human ezrin", "assay": "other fluorescence titration; steady-state tryptophan fluorescence; 2 μM ezrin construct titrated with S100 protein; 20 mM HEPES pH 7.5, 150 mM NaCl, 0.5 mM TCEP, 1 mM CaCl2; 25°C; quadratic binding equation"}, "[14]": {"molecular_target": "T4, Full-length human ezrin, …", "assay": "other fluorescence titration; steady-state tryptophan fluorescence; 2 μM ezrin construct titrated with S100 protein; 20 mM HEPES pH 7.5, 150 mM NaCl, 0.5 mM TCEP, 1 mM CaCl2; 25°C; quadratic binding equation"}, "[15]": {"molecular_target": "T1, Ezrin N-ERMAD (N-terminal ERM domain, …)", "assay": "stopped-flow tryptophan fluorescence kinetics; 1 μM (post-mixing) N-ERMAD or F2 lobe mixed with S100A4 at different concentrations; 20 mM HEPES pH 7.5, 150 mM NaCl, 0.5 mM TCEP, 1 mM CaCl2; 25°C; Kd from amplitudes (quadratic), K1, k2, k-2 from hyperbola of kobs (induced fit)"}, "[16]": {"molecular_target": "T2, Ezrin F2 lobe of the N-ERMAD …", "assay": "stopped-flow tryptophan fluorescence kinetics; 1 μM (post-mixing) N-ERMAD or F2 lobe mixed with S100A4 at different concentrations; 20 mM HEPES pH 7.5, 150 mM NaCl, 0.5 mM TCEP, 1 mM CaCl2; 25°C; Kd from amplitudes (quadratic), K1, k2, k-2 from hyperbola of kobs (induced fit)"}},
  "data": [
    {"binder": "S100P (natural protein, UniProt P25815 1-95, looked up) MTELETAMGMIIDVFSRYSGSEGSTQTLTKGELKVLMEKELPGFLQSGKDKDAVDKLLKDLDANGDAQVDFSEFIVFVAAITSACHKYFEKAGLK", "values": [
      {"measurement": "Kd", "setting": "[1]", "result": "1700 ± 300", "unit": "nM"}
    ]},
    {"binder": "Fl-C-ERMAD^T567D (fluorescently labeled phosphomimetic C-ERMAD mutant) (domain or fragment, human, fluorescent label on the N-terminal cysteine (Alexa Fluor 568 C5 maleimide by the methods for the C-ERMAD fragments), cysteine cloned before Lys516, carries the fluorescent label (as for the C-ERMAD); human ezrin C-ERMAD with Thr567Asp; limits are those printed for the parent C-ERMAD (Lys516-Leu586); source: E. coli Rosetta(DE3), purified, fluorescently labeled; not shown: GST, N-terminal, cleaved) CKRITEAEKNERVQRQLLTLSSELSQARDENKRTHNDIIHNENMRQGRDKYKDLRQIRQGNTKQRIDEFEAL", "values": [
      {"measurement": "binding result", "setting": "[2]", "result": "binds"},
      {"measurement": "Kd", "setting": "[3]", "result": 2700, "unit": "nM"}
    ]},
    {"binder": "Fl-C-ERMAD (fluorescently labeled ezrin C-ERMAD, Cys-Lys516-Leu586) (domain or fragment, human, Alexa Fluor 568 C5 maleimide on the N-terminal cysteine (the same paragraph also calls the peptides fluorescein-conjugated), cysteine cloned before Lys516, carries the fluorescent label; human ezrin C-ERMAD, Lys516-Leu586; also called fluorescently-labeled C-ERMAD; not shown: GST, N-terminal, cleaved) CKRITEAEKNERVQRQLLTLSSELSQARDENKRTHNDIIHNENMRQGRDKYKTLRQIRQGNTKQRIDEFEAL", "values": [
      {"measurement": "Kd", "setting": "[2]", "result": "8.6 ± 0.7", "unit": "nM"},
      {"measurement": "Kd", "setting": "[3]", "result": 3400, "unit": "nM"}
    ]},
    {"binder": "Ezrin C-ERMAD (Cys-Lys516-Leu586), unlabeled (domain or fragment, human, cysteine cloned before Lys516 for fluorescent labeling; human ezrin C-ERMAD, Lys516-Leu586; also called unlabeled C-ERMAD; not shown: GST, N-terminal, cleaved) CKRITEAEKNERVQRQLLTLSSELSQARDENKRTHNDIIHNENMRQGRDKYKTLRQIRQGNTKQRIDEFEAL", "values": [
      {"measurement": "Kd", "setting": "[4]", "result": 5300, "unit": "nM"},
      {"measurement": "binding result", "setting": "[5]", "result": "binds"}
    ]},
    {"binder": "B1", "values": [
      {"measurement": "Kd", "setting": "[6]", "result": 1100, "unit": "nM"},
      {"measurement": "Kd", "setting": "[7]", "result": 120, "unit": "nM"},
      {"measurement": "Kd", "setting": "Full-length human ezrin [8]", "result": 92100, "unit": "nM"},
      {"measurement": "Kd", "setting": "[9]", "result": 72200, "unit": "nM"},
      {"measurement": "stoichiometry N", "setting": "[10]", "result": 1, "unit": "S100A4 dimer per F2 lobe"},
      {"measurement": "Kd", "setting": "[11]", "result": 2200, "unit": "nM"},
      {"measurement": "Kd", "setting": "[12]", "result": "< 100", "unit": "nM"},
      {"measurement": "Kd", "setting": "Full-length human ezrin [13]", "result": 175000, "unit": "nM"},
      {"measurement": "Kd", "setting": "[14]", "result": 158000, "unit": "nM"},
      {"measurement": "Kd", "setting": "[15]", "result": 3900, "unit": "nM"},
      {"measurement": "Kd", "setting": "[16]", "result": 170, "unit": "nM"}
    ]}
  ]
}
